Reference: publication PMC9122904, “Insights into the client protein release mechanism of the ATP-independent chaperone Spy” (Nature Communications, 2022)
Residue numbers refer to the chain shown, from its start. Names may count otherwise.

Columns and labels:
Assay in all cases: BLI; Octet RED96; client biotinylated and loaded on streptavidin sensors; Spy or Spy variant in solution at 0.25, 0.5, 1, 1.5 and 2 μM; 40 mM HEPES, 150 mM NaCl, pH 7.5; Kd calculated as koff/kon
Details in all cases: both partners purified
Spy D26R = target: T1, Spy D26R (UniProt P77754 24-161, D26R)
T1 construct: source: E. coli BL21 (DE3), purified (Ni-NTA, cation exchange, SEC); not shown: His6, N-terminal, cleaved; SUMO, N-terminal, cleaved
T1 sequence (looked up): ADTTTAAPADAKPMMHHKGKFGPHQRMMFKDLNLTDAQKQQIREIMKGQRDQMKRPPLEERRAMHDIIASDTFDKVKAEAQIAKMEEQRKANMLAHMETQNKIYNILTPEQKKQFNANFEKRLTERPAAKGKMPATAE

Spy_(R50D) = target: T2, Spy_(R50D) (UniProt P77754 24-161, R50D)
T2 construct: source: E. coli BL21 (DE3), purified (Ni-NTA, cation exchange, SEC); not shown: His6, N-terminal, cleaved; SUMO, N-terminal, cleaved
T2 sequence (looked up): T1 sequence (looked up) with R26D, R50D
In short: (§1)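 Association was recorded with an Octet RED96 as streptavidin sensors carrying client proteins, biotinylated with EZ-link NHS-biotin at a 1:1 molar ratio, sat in 40 mM HEPES, 150 mM NaCl, pH 7.5 with 0.25 to 2 μM of the analyte protein (0.25, 0.5, 1, 1.5 and 2 μM). Dissociation followed after transfer to analyte-free buffer. Both wavelength-shift phases were fitted in SigmaPlot 12.0 to obtain koff and the observed association rate, whose dependence on analyte concentration yielded kon, with Kd defined as koff divided by kon.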

Spy D26K H96D = target: T3, Spy D26K H96D (UniProt P77754 24-161, D26K | H96D)
T3 construct: source: E. coli BL21 (DE3), purified (Ni-NTA, cation exchange, SEC); not shown: His6, N-terminal, cleaved; SUMO, N-terminal, cleaved
T3 sequence (looked up): T1 sequence (looked up) with R26K, H96D
In short: as §1

Spy D26K H65D = target: T4, Spy D26K H65D (UniProt P77754 24-161, D26K | H65D)
T4 construct: source: E. coli BL21 (DE3), purified (Ni-NTA, cation exchange, SEC); not shown: His6, N-terminal, cleaved; SUMO, N-terminal, cleaved
T4 sequence (looked up): T1 sequence (looked up) with R26K, H65D
In short: as §1

Spy_(R61D R62D) = target: T5, Spy_(R61D R62D) (UniProt P77754 24-161, R61D | R62D)
T5 construct: source: E. coli BL21 (DE3), purified (Ni-NTA, cation exchange, SEC); not shown: His6, N-terminal, cleaved; SUMO, N-terminal, cleaved
T5 sequence (looked up): T1 sequence (looked up) with R26D, R61D, R62D
In short: as §1

Spy_(R89D) = target: T6, Spy_(R89D) (UniProt P77754 24-161, R89D)
T6 construct: source: E. coli BL21 (DE3), purified (Ni-NTA, cation exchange, SEC); not shown: His6, N-terminal, cleaved; SUMO, N-terminal, cleaved
T6 sequence (looked up): T1 sequence (looked up) with R26D, R89D
In short: as §1

Spy_(D26K R61D R62D) = target: T7, Spy_(D26K R61D R62D) (UniProt P77754 24-161, D26K | R61D | R62D)
T7 construct: source: E. coli BL21 (DE3), purified (Ni-NTA, cation exchange, SEC); not shown: His6, N-terminal, cleaved; SUMO, N-terminal, cleaved
T7 sequence (looked up): T1 sequence (looked up) with R26K, R61D, R62D
In short: as §1

Spy_(R89D D26K) = target: T8, Spy_(R89D D26K) (UniProt P77754 24-161, D26K | R89D)
T8 construct: also called D26K R89D; source: E. coli BL21 (DE3), purified (Ni-NTA, cation exchange, SEC); not shown: His6, N-terminal, cleaved; SUMO, N-terminal, cleaved
T8 sequence (looked up): T1 sequence (looked up) with R26K, R89D
In short: as §1

- Kd (Spy D26R): 286 nM
- koff (Spy_(R50D)): 0.543 s⁻¹
- koff (Spy D26K H96D): 0.172 s⁻¹
- koff (Spy D26K H65D): 0.284 s⁻¹
- koff (Spy_(R61D R62D)): 0.0727 s⁻¹
- koff (Spy_(R89D)): 0.105 s⁻¹
- koff (Spy_(D26K R61D R62D)): 0.475 s⁻¹
- koff (Spy_(R89D D26K)): 0.2 s⁻¹
B1: Im7 H40W L53A I54A (natural protein)
chain: MELKNSISDYTEAEFVQLLKEIEKENVAATDDVLDVLLEWFVKITEHPDGTDAAYYPSDNRDDSPEGIVKEIKEWRAANGKPGFKQG
modifications: biotin (EZ-link NHS-biotin, 1:1 molar ratio of biotin to protein)
notes: Im7 (colicin E7 immunity protein) with H40W L53A I54A; Spy was made with an N-terminal His6-SUMO tag that was cleaved; also called Im7AAW; partially folded client; source: purified by a similar procedure to Spy
